Where two headings read alike, the source gives them in different places.
Assays:
GPC3 [1] = target: T1, GPC3 (UniProt P51654 25-554); experiment: flow cytometry; HepG2 cells
GPC3 [2] = target: T1, GPC3; experiment: flow cytometry; HepG2 cells; remark: listed apart in the source

EC50 (GPC3 [1]): 0.529 nM
EC50 (GPC3 [2]): 0.529 nM
B1: Codrituzumab (antibody, V domains shown)
VH: QVQLVQSGAEVKKPGASVKVSCKASGYTFTDYEMHWVRQAPGQGLEWMGALDPKTGDTAYSQKFKGRVTLTADKSTSTAYMELSSLTSEDTAVYYCTRFYSYTYWGQGTLVTVSS
VL: DVVMTQSPLSLPVTPGEPASISCRSSQSLVHSNRNTYLHWYLQKPGQSPQLLIYKVSNRFSGVPDRFSGSGSGTDFTLKISRVEAEDVGVYYCSQNTHVPPTFGQGTKLEIKR

Reference: patent publication US20250134962A1 (published 2025)
